Results published in patent publication US20040157296A1 (HESKA, published 2004).

Target: T1, Human CTLA4 Fc chimeric protein (human, UniProt P16410 37-162, limits assumed)
T1 construct: Bought from R&D Systems; Used at about 20 ug/ml; also called recombinant CTLA4 protein; not shown: human IgG Fc (detected with mouse anti human IgG Fc FITC)
T1 sequence (looked up): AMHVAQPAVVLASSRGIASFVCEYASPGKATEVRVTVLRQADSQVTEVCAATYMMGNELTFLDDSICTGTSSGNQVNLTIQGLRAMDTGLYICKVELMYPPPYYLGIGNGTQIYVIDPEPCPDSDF
Test: flow cytometry on L cell transfectants
Procedure: Recombinant cells L-pCMV-nFeB7-2₉₉₉, and L-pCMV-nFeB7-1₈₇₉, produced as described in Example 8, were tested for surface expression of feline B7-1 or B7-2 by determining if human CTLA4 will bind. Briefly, 1×10⁵ (per condition) L-pCMV-nFeB7-2₉₉₉ or L-pCMV-nFeB7-1₈₇₉ cells or, as a negative control, L cells transfected with the empty pCMV vector and the PMLBKTK plasmid (L-CMV) were incubated in phosphate buffered saline (PBS) containing 30% fetal bovine serum (FBS) for about 30 min on ice. The cells were then spun down and treated with the following:
Human CTLA4 Fc chimeric protein, available from R&D systems, Minneapolis, Minn., was used at about 20 μg/ml. Mouse anti human IgG Fe FITC, available from Sigma, was used at about 65 μg/ml. These reagents were diluted in PBS/5% FBS. All incubations were performed in about 100 μl for about 1 hr on ice with 3 washes of PBS/5% FBS in between each incubation. Cells were then analyzed on a flow cytometer (MoFlow Desk Top System, Cytomation, Ft Collins, Colo.) with the fluorescein gate set at 10¹.

- binding result: binds
B1: feline B7-2 protein expressed on L-pCMV-nFeB7-2999 recombinant L cells (PFeB7-2332) (ligand)
chain: VSSMKSQAYFNKTGELPCHFTNSQNISLDELVVFWQDQDKLVLYEIFRGKENPQNVHLKYKGRTSFDKDNWTLRLHNVQIKDKGTYHCFIHYKGPKGLVPMHQMSSDLSVLANFSQPEITVTSNRTENSGIINLTCSSIQGYPEPKEMYFQLNTENSTTKYDTVMKKSQNNVTELYNVSISLPFSVPEAHNVSVFCALKLETLEMLLSLPFNIDAQPKDKDPEQGHFLWIAAVLVMFVVFCGMVSFKTLRKRKKKQPGPSHECETIKRERKESKQTNERVPYHVPERSDEAQCINILKTASGDKSTTHF
notes: also called PFeB7-2309 (mature)
